From patent US20070185311A1 (EPIX MEDICAL INC A DELAWARE, published 2007)
Starred links: 1 amine or outer side, 2 acyl side, 3 side chain; linkers in the order of their positions; H or OH if unused. Positions of bridges follow the written chain, without caps; N, C: chain ends. Non-standard residues stand in square brackets, D forms with d. No end group written: not given here. Phe(4-OMe) = COc1ccc(C[C@H](N[*:1])C(=O)[*:2])cc1; Bpa = N[C@@H](Cc1ccc(C(=O)c2ccccc2)cc1)C(=O)O; Ser(Bzl) = O=C([C@H](COCc1ccccc1)N[*:1])[*:2]; Tyr(3-Cl) = N[C@@H](Cc1ccc(O)c(Cl)c1)C(=O)O; Bip = N[C@@H](Cc1ccc(-c2ccccc2)cc1)C(=O)O; Tyr(3-I) = N[C@@H](Cc1ccc(O)c(I)c1)C(=O)O; Phe(3-Me) = Cc1cccc(C[C@H](N)C(=O)O)c1; 2Nal = N[C@@H](Cc1ccc2ccccc2c1)C(=O)O; Hyp = O=C(O)[C@@H]1C[C@@H](O)CN1; hPhe = N[C@@H](CCc1ccccc1)C(=O)O; 2Pal = N[C@@H](Cc1ccccn1)C(=O)O; 4Pal = N[C@@H](Cc1ccncc1)C(=O)O; NDecylGly = CCCCCCCCCCNCC(=O)O; Phg = N[C@H](C(=O)O)c1ccccc1; Ad = adenosine base unit; Gu = guanosine base unit; Dht = not defined here; Taz = not defined here; Inp = O=C(O)C1CCNCC1; Ahx = NCCCCCC(=O)O

T1: DD(E) fragment of fibrin
T1 chain 1: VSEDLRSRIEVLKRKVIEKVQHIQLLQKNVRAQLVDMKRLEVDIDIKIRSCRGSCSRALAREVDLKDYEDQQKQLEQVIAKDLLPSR
T1 chain 2: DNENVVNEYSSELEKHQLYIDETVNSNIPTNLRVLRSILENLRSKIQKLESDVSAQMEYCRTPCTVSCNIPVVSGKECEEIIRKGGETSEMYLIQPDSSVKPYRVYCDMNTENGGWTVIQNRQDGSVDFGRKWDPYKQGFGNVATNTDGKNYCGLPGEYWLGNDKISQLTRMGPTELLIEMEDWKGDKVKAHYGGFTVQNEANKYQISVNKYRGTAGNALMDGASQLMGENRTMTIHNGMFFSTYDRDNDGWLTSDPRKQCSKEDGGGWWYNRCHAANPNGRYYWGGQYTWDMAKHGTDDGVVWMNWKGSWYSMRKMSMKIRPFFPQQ
T1 chain 3: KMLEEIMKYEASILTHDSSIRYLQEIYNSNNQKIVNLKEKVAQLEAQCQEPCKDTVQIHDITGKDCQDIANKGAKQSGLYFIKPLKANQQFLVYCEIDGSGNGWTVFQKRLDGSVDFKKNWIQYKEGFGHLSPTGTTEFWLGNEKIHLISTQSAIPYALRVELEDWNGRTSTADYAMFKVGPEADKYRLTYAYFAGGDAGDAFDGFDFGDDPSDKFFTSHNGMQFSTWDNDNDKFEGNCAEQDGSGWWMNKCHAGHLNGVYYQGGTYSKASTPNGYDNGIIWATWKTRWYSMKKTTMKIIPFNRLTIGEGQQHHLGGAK
T1 chain 4: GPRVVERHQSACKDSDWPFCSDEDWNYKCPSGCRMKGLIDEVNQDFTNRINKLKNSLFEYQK
T1 chain 5: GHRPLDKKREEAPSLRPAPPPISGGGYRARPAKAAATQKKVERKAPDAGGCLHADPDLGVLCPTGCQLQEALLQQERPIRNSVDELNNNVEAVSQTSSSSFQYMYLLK
T1 chain 6: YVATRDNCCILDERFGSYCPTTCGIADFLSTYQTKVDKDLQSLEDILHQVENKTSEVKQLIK


Target: DD(E) fragment of fibrin
Test: affinity to DD(E) fragment of fibrin

Row | Binder | Kd
1 | [dF][dE]C[Hyp][Tyr(3-Cl)]GLCWIQ (disulfide 3-8 (inferred)) [(D-F)-(D-E)-C-Hyp-Y(3-Cl)-G-L-C-W-I-Q] | < 200 nM
2 | WECPYGLCWIQ (disulfide 3-8 (inferred)) [W-E-C-P-Y-G-L-C-W-I-Q] | < 200 nM
3 | FHC[Hyp][Tyr(3-I)]DLCH[nVal] (disulfide 3-8 (inferred)) [F-H-C-Hyp-Y(3-I)-D-L-C-H-nVal] | < 200 nM
4 | FHC[Hyp][Tyr(3-I)]DLCH[Phg] (disulfide 3-8 (inferred)) [F-H-C-Hyp-Y(3-I)-D-L-C-H-Phg] | < 200 nM
5 | Y[dE]C[Hyp][Tyr(3-Cl)]GLCWIQ (disulfide 3-8 (inferred)) [Y-(D-E)-C-Hyp-Y(3-Cl)-G-L-C-W-I-Q] | < 100 nM
6 | FHC[Hyp][Tyr(3-I)]DLCH[Phe(3-Me)] (disulfide 3-8 (inferred)) [F-H-C-Hyp-Y(3-I)-D-L-C-H-F(3-Me)] | < 200 nM
7 | FHC[Hyp][Tyr(3-I)]DLC[4Pal]I (disulfide 3-8 (inferred)) [F-H-C-Hyp-Y(3-I)-D-L-C-4Pal-I] | < 200 nM
8 | YEC[Hyp][Tyr(3-Cl)]GLCWIQ (disulfide 3-8 (inferred)) [Y-E-C-Hyp-Y(3-Cl)-G-L-C-W-I-Q] | < 300 nM
9 | F[dE]C[Hyp][Tyr(3-Cl)]GLCWIQ (disulfide 3-8 (inferred)) [F-(D-E)-C-Hyp-Y(3-Cl)-G-L-C-W-I-Q] | < 300 nM
10 | FHCPYDLCHIL (disulfide 3-8 (inferred)) [F-H-C-P-Y-D-L-C-H-I-L] | < 300 nM
11 | FHC[Hyp]YDLCH[Bpa] (disulfide 3-8 (inferred)) [F-H-C-Hyp-Y-D-L-C-H-Bpa] | < 300 nM
12 | [Phe(4-OMe)]HC[Hyp][Tyr(3-I)]DLCHIL (disulfide 3-8 (inferred)) [F(4-OMe)-H-C-Hyp-Y(3-I)-D-L-C-H-I-L] | < 100 nM
13 | [Phe(4-OMe)]HC[Hyp]YDLCHIL (disulfide 3-8 (inferred)) [F(4-OMe)-H-C-Hyp-Y-D-L-C-H-I-L] | < 400 nM
14 | FHC[Hyp][Tyr(3-I)]DLC[Bpa]I (disulfide 3-8 (inferred)) [F-H-C-Hyp-Y(3-I)-D-L-C-Bpa-I] | < 400 nM
15 | [Ad]HC[Hyp][Tyr(3-I)]DLCHI (disulfide 3-8 (inferred)) [Ad-H-C-Hyp-Y(3-I)-D-L-C-H-I] | < 400 nM
16 | FEC[Hyp][Tyr(3-Cl)]GLCWIQ (disulfide 3-8 (inferred)) [F-E-C-Hyp-Y(3-Cl)-G-L-C-W-I-Q] | < 500 nM
17 | FHC[Hyp]YDLCHIL (disulfide 3-8 (inferred)) [F-H-C-Hyp-Y-D-L-C-H-I-L] | < 500 nM
18 | [hPhe]HC[Hyp]YDLCHIL (disulfide 3-8 (inferred)) [Hfe-H-C-Hyp-Y-D-L-C-H-I-L] | < 500 nM
19 | [Phe(4-OMe)][His(Bzl)]C[Hyp][Tyr(3-Cl)]DLCH[Bpa] (disulfide 3-8 (inferred)) [F(4-OMe)-H(Bzl)-C-Hyp-Y(3-Cl)-D-L-C-H-Bpa] | < 100 nM
20 | [Bip]HC[Hyp]YDLCHIL (disulfide 3-8 (inferred)) [Bip-H-C-Hyp-Y-D-L-C-H-I-L] | < 500 nM
21 | FHC[Hyp][Tyr(3-I)]DLC[2Pal]I (disulfide 3-8 (inferred)) [F-H-C-Hyp-Y(3-I)-D-L-C-2Pal-I] | < 500 nM
22 | FHC[Hyp][Tyr(3-I)]DLC[Taz]I (disulfide 3-8 (inferred); reading uncertain; also: printed as F-H-C-Hyp-Y(3-I)-D-L-C-Taz-I) [F-H-C-Hyp-Y(3-I)-D-L-C-Taz-I] | < 500 nM
23 | FHC[Hyp][Tyr(3-I)]DLC[Dht]I (disulfide 3-8 (inferred); reading uncertain; also: printed as F-H-C-Hyp-Y(3-I)-D-L-C-Dht-I) [F-H-C-Hyp-Y(3-I)-D-L-C-Dht-I] | < 500 nM
24 | [Gu]HC[Hyp][Tyr(3-I)]DLCHI (disulfide 3-8 (inferred)) [Gu-H-C-Hyp-Y(3-I)-D-L-C-H-I] | < 500 nM
25 | LPCDYYGTC[NDecylGly][dD] (not fully specified; cysteine pairing not given here) [L-P-C-D-Y-Y-G-T-C-n(Decyl)G-dD] | < 10000 nM
26 | LPCDYYGTC[NDecylGly]D (not fully specified; cysteine pairing not given here) [L-P-C-D-Y-Y-G-T-C-n(Decyl)G-D] | < 10000 nM
27 | LPCDYYGTC[MeL][Inp] (cysteine pairing not given here) [L-P-C-D-Y-Y-G-T-C-MeL-Inp] | < 10000 nM

Target: T1, DD(E) fragment of fibrin
Test: affinity to DD(E) fragment of fibrin

Row | Binder | Kd
28 | T[dE]C[Hyp][Tyr(3-Cl)]GLCWIQ (disulfide 3-8 (inferred)) [T-(D-E)-C-Hyp-Y(3-Cl)-G-L-C-W-I-Q] | ≤ 200 nM
29 | WEC[Hyp][Tyr(3-Cl)]GLCHIQ (disulfide 3-8 (inferred)) [W-E-C-Hyp-Y(3-Cl)-G-L-C-H-I-Q] | ≤ 200 nM
30 | YEC[Hyp][Tyr(3-Cl)]GLCYIQ (disulfide 3-8 (inferred)) [Y-E-C-Hyp-Y(3-Cl)-G-L-C-Y-I-Q] | ≤ 200 nM
31 | WEC[Hyp][Tyr(3-Cl)]GLCFIQ (disulfide 3-8 (inferred)) [W-E-C-Hyp-Y(3-Cl)-G-L-C-F-I-Q] | ≤ 200 nM
32 | H[dE]C[Hyp][Tyr(3-Cl)]GLCWIQ (disulfide 3-8 (inferred)) [H-(D-E)-C-Hyp-Y(3-Cl)-G-L-C-W-I-Q] | ≤ 200 nM
33 | S[dE]C[Hyp][Tyr(3-Cl)]GLCWIQ (disulfide 3-8 (inferred)) [S-(D-E)-C-Hyp-Y(3-Cl)-G-L-C-W-I-Q] | ≤ 200 nM
34 | WEC[Hyp][Tyr(3-Cl)]GLCYIQ (disulfide 3-8 (inferred)) [W-E-C-Hyp-Y(3-Cl)-G-L-C-Y-I-Q] | ≤ 300 nM
35 | FHC[Hyp][Tyr(3-Cl)]GLCHIL (disulfide 3-8 (inferred)) [F-H-C-Hyp-Y(3-Cl)-G-L-C-H-I-L] | ≤ 400 nM
36 | [Ser(Bzl)]HCPYDLCHIL (disulfide 3-8 (inferred)) [S(Bzl)-H-C-P-Y-D-L-C-H-I-L] | ≤ 400 nM
37 | HEC[Hyp][Tyr(3-Cl)]GLCHIQ (disulfide 3-8 (inferred)) [H-E-C-Hyp-Y(3-Cl)-G-L-C-H-I-Q] | ≤ 400 nM
38 | FHC[Hyp][Tyr(3-Cl)]FLCHIL (disulfide 3-8 (inferred)) [F-H-C-Hyp-Y(3-Cl)-F-L-C-H-I-L] | ≤ 500 nM
39 | FHC[Hyp][Tyr(3-Cl)][2Nal]LCHIL (disulfide 3-8 (inferred)) [F-H-C-Hyp-Y(3-Cl)-(2-Nal)-L-C-H-I-L] | ≤ 500 nM
40 | [Phe(4-OMe)]WC[Hyp][Tyr(3-I)]DLCHI (disulfide 3-8 (inferred)) [F(4-OMe)-W-C-Hyp-Y(3-I)-D-L-C-H-I] | ≤ 500 nM

Target: T1, DD(E) fragment of fibrin
Test: affinity of optical contrast agent to fibrin DD(E) fragment

Row | Binder | Kd
41 | fluorescein-[Ahx]WFHC[Hyp][Tyr(3-I)]DLCHI (disulfide 5-10 (inferred)) [Structure D: Fluor-Ahx-W-F-H-C-Hyp-Y(3-I)-D-L-C-H-I] | 61 nM
42 | fluorescein-WFHCPYDLCHIL (disulfide 4-9 (inferred)) [Structure K: Fluor-W-F-H-C-P-Y-D-L-C-H-I-L] | 60 nM
43 | fluorescein-[Ahx]GGFHC[Hyp][Tyr(3-I)]DLCHI (disulfide 6-11 (inferred)) [Structure E: Fluor-Ahx-G-G-F-H-C-Hyp-Y(3-I)-D-L-C-H-I] | 90 nM
44 | fluorescein-[Ahx]GFHC[Hyp][Tyr(3-I)]DLCHI (disulfide 5-10 (inferred)) [Structure C: Fluor-Ahx-G-F-H-C-Hyp-Y(3-I)-D-L-C-H-I] | 97 nM
